Source: US20190300897A1 (INSTITUTE OF GENETICS AND DEVELOPMENTAL BIOLOGY CHINESE …, published 2019)

T1: MBP-DA2 (Arabidopsis, UniProt Q93YV5 1-401)
T1 construct: Used as bacterial lysate and held on amylose resin; also called DA2 expressed as a MBP fusion protein; DA2-MBP
T1 sequence: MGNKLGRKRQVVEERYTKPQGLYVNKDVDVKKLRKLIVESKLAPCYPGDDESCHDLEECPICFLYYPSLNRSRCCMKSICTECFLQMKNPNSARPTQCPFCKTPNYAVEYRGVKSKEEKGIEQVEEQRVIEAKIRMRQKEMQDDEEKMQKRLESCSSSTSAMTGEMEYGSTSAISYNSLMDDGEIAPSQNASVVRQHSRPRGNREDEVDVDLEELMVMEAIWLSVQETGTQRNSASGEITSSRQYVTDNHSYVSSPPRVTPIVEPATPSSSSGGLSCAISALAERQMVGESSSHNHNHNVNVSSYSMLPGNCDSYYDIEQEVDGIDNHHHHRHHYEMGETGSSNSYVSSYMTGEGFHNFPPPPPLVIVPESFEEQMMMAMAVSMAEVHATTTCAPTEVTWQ

B1: GST-DA1-LIM (other)
chain: RICAGCNMEIGHGRFLNCLNSLWHPECFRCYGCSQPISEYEFSTSGNYPFHKACYRERYHP
notes: Only the LIM domain was in the assay; not shown: glutathione S-transferase (GST) tag from vector pGEX-4T-1
B2: GST-DA1-UIM (other)
chain: MGWFNKIFKGSNQRLRVGNNKHNHNVYYDNYPTASHDDEPSAADTDADNDEPHHTQEPSTSEDNTSNDQENEDIDRAIALSLLEENQEQTSISGKYSMPVDEDEQLARALQESMVVGNSPRHKSGSTYDNGNAYGAGDLYGNGHMYGGGNVYANGDIYYPRPITFQMDF
notes: Only the part holding the two UIM domains was in the assay; not shown: glutathione S-transferase (GST) tag from vector pGEX-4T-1

Molecular target: T1, MBP-DA2
Assay: in vitro pull-down on amylose resin, anti-GST immunoblot
Experimental: To test protein-protein interaction, bacterial lysates containing approximately 15 μg of MBP-DA2 fusion proteins were combined with lysates containing approximately 30 μg of GST-DA1, GST-DA1R358K, GST-DA1-UIM, GST-DA1-LIM, GST-DA1-LIM+C or GST-DA1-C fusion proteins. 20 μl amylose resin (New England Biolabs) was added into each combined solution with continued rocking at 4° C. for 1 hour. Beads were washed […] with TGH buffer, and the isolated proteins were separated on a 10% SDS-polyactyamide gel and detected by western blot analysis with anti-GST (Abmart) and anti-MBP antibodies (Abmart), respectively.

| Binder | binding result |
| --- | --- |
| B1 | no binding |
| B2 | no binding |
